Values quoted from earlier work in article PMC4435181.
pKd: −log10 of the molar value.

Molecular target: HER2 ECD (Homo sapiens) (UniProt P04626)
Test: ELISA

trastuzumab
pKd: 10.00
